What all share (test): EMSA
What all share (details): tags: MBP fusion
(Mobility shift assays separate free from complexed probe on a gel.)

One series concerns the target ZFP SBS#652 (synthetic). The method in brief: (§1)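 Purified ZFP was titrated against labeled double-stranded target (1 nM or lower, at least 10-fold below expected Kd) carrying the natural binding site with flanks. Binding buffer was 10 mM Tris pH 7.5, 100 mM KCl, 1 mM MgCl2, 0.1 mM ZnCl2, 5 mM DTT, 10% glycerol, 0.02% BSA, with equilibration for at least 45 min. Bound and free target were separated on a 10% polyacrylamide gel.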

A further series has as its target T1, ZFP SBS#653 (synthetic, UniProt P08047).
T1 chain: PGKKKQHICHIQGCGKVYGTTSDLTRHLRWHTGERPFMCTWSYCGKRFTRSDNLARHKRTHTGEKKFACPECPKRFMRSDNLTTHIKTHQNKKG
Put shortly:
as §1

In another series the target is T2, ZFP SBS#646 (synthetic).
T2 chain: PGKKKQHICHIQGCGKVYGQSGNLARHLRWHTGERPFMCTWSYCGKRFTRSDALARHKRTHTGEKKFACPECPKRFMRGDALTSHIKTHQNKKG
Put shortly: as §1

The target of the next series is T3, ZFP SBS#647 (synthetic).
T3 chain: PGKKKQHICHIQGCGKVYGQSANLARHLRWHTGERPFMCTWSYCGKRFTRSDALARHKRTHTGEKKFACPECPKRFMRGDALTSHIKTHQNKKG
The method in brief: as §1

For the next series, the target named is ZFP SBS#253 (synthetic). The method in brief:
as §1

The target in the next series is T4, ZFP SBS#683 (synthetic).
T4 chain: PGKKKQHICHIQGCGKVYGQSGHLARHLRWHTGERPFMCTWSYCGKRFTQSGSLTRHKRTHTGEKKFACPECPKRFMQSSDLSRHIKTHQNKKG
The method in brief: as §1

The next series has as its target ZFP SBS#681 (synthetic). The method in brief: as §1
Another series addresses ZFP SBS#685 (synthetic). The method in brief:
as §1

Another series concerns the target ZFP SBS#684 (synthetic). Put shortly: as §1
The next series addresses ZFP SBS#682 (synthetic). The method in brief: as §1
Another series concerns the target T5, ZFP SBS#629 (synthetic).
T5 chain: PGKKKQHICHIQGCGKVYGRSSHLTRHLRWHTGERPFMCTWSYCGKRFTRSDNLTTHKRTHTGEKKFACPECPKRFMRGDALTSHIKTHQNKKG
The method in brief:
as §1

The target in a further series is T6, ZFP SBS#628 (synthetic).
T6 chain: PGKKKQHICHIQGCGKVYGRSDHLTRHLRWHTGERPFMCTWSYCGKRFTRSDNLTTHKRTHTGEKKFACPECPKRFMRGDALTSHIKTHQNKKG
Put shortly: as §1

The target of a further series is ZFP SBS#616 (synthetic). Put shortly: as §1
The target of the next series is ZFP SBS#651 (synthetic). Put shortly:
as §1

The next series deals with T7, ZFP SBS#612 (synthetic).
T7 chain: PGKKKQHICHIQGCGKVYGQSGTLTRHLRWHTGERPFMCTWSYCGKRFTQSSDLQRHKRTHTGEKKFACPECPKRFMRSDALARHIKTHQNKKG
Put shortly:
as §1

The target in the next series is ZFP SBS#611 (synthetic). The method in brief: as §1
A further series concerns the target T8, ZFP SBS#618 (synthetic).
T8 chain: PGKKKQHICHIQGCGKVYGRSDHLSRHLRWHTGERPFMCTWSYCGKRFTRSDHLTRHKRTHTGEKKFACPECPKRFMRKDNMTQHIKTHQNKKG
The method in brief:
as §1

For another series, the target named is ZFP SBS#620 (synthetic). Put shortly: as §1
A further series addresses T9, ZFP SBS#619 (synthetic).
T9 chain: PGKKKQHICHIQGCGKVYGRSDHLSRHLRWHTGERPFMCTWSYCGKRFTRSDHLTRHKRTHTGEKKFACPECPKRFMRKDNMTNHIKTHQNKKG
Put shortly:
as §1

The target in the next series is T10, ZFP SBS#621 (synthetic).
T10 chain: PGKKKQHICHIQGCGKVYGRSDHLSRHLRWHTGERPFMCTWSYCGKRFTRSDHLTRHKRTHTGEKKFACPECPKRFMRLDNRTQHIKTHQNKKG
Put shortly:
as §1

For the next series, the target named is T11, ZFP SBS#617 (synthetic).
T11 chain: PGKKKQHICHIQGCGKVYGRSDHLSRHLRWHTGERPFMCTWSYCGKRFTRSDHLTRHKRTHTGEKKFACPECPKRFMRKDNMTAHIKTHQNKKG
The method in brief: as §1

The target of another series is T12, ZFP SBS#624 (synthetic).
T12 chain: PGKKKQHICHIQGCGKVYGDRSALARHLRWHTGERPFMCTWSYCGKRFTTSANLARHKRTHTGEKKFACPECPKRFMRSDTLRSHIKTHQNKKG
The method in brief:
as §1

The target of the next series is ZFP SBS#614 (synthetic). The method in brief: as §1
The next series concerns the target ZFP SBS#613 (synthetic). The method in brief:
as §1

In the next series the target is T13, ZFP SBS#608 (synthetic).
T13 chain: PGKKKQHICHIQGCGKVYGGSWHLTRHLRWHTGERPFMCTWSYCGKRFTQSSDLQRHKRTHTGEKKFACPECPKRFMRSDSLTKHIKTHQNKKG
The method in brief: as §1

Another series has as its target T14, ZFP SBS#371 (synthetic).
T14 chain: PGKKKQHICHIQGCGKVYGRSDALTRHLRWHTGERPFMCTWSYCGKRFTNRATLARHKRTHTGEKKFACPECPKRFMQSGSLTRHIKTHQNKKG
The method in brief:
as §1

In another series the target is T15, ZFP SBS#401 (synthetic).
T15 chain: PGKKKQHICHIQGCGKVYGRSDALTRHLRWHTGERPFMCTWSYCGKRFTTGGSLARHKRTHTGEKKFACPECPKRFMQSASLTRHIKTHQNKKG
The method in brief:
as §1

The target of another series is T16, ZFP SBS#569 (synthetic).
T16 chain: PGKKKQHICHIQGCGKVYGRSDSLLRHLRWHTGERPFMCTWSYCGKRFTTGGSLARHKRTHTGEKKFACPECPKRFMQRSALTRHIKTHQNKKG
Put shortly: as §1

The target of a further series is T17, ZFP SBS#370 (synthetic).
T17 chain: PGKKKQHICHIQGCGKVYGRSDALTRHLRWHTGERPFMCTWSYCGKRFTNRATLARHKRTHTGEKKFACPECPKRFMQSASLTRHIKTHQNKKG
The method in brief: as §1

In another series the target is T18, ZFP SBS#369 (synthetic).
T18 chain: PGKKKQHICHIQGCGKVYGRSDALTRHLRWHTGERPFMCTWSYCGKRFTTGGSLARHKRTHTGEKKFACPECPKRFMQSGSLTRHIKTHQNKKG
Put shortly:
as §1

The target of a further series is T19, ZFP SBS#421 (synthetic).
T19 chain: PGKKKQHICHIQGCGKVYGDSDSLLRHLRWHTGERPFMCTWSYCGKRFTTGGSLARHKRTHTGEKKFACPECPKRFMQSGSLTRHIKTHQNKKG
Put shortly:
as §1

A further series addresses T20, ZFP SBS#403 (synthetic).
T20 chain: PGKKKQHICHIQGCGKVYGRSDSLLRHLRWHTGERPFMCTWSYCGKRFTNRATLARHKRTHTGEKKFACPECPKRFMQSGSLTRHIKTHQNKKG
The method in brief: as §1

A further series deals with T21, ZFP SBS#422 (synthetic).
T21 chain: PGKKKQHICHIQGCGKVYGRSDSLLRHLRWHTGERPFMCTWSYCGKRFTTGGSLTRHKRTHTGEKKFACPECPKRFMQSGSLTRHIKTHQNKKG
Put shortly: as §1

Another series has as its target T22, ZFP SBS#372 (synthetic).
T22 chain: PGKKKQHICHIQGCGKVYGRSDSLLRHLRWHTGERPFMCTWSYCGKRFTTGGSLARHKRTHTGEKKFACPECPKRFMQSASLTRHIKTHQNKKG
Put shortly:
as §1

In the next series the target is T23, ZFP SBS#373 (synthetic).
T23 chain: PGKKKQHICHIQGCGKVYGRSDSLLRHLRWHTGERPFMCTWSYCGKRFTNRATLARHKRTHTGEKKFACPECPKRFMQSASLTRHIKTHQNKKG
Put shortly:
as §1

In a further series the target is ZFP SBS#630 (synthetic). The method in brief: as §1

Sequence of ZFP SBS#681 (synthetic) (chain, as listed by the source): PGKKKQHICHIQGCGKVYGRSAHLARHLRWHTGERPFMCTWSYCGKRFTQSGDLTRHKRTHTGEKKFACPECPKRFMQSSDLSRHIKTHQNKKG
Sequence of ZFP SBS#684 (synthetic) (chain, as listed by the source): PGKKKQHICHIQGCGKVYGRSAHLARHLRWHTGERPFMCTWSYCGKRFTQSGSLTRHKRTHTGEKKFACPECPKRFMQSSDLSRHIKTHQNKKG
Sequence of ZFP SBS#614 (synthetic) (chain, as listed by the source): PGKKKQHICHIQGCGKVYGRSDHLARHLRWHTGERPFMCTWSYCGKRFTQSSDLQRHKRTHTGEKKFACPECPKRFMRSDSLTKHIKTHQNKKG
Sequence of ZFP SBS#652 (synthetic) (chain, as listed by the source): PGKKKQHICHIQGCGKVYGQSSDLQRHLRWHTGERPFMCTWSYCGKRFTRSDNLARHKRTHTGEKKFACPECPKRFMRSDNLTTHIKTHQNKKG
Sequence of ZFP SBS#620 (synthetic) (chain, as listed by the source): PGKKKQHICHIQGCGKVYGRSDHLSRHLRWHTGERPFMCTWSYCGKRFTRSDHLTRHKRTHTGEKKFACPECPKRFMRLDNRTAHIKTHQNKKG
Sequence of ZFP SBS#685 (synthetic) (chain, as listed by the source): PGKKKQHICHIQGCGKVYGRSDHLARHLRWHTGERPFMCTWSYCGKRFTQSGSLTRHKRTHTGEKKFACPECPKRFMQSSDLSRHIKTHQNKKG
Sequence of ZFP SBS#613 (synthetic) (chain, as listed by the source): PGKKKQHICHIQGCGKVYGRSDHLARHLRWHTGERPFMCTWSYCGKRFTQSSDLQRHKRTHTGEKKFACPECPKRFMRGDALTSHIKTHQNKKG
Sequence of ZFP SBS#651 (synthetic) (chain, as listed by the source): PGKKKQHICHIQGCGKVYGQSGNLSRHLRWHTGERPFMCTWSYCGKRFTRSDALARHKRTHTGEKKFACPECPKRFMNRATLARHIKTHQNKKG

B1: TAGGAGGCTG (dsDNA)
DNA 1: TAGGAGGCTG
DNA 2: CAGCCTCCTA
The Kd is the free concentration of one partner at which half of the binding sites on the other are occupied at equilibrium, for simple one-to-one binding. Lower therefore signals higher affinity. As to B1, the figures for the Kd with ZFP SBS#652 and with ZFP SBS#653 were 1.5 nM and 5.5 nM, respectively.

B2: TTGGTGGAAG (dsDNA)
DNA 1: TTGGTGGAAG
DNA 2: CTTCCACCAA
On to B2, for which the Kd amounted to 35 nM in the series with ZFP SBS#646 and 40 nM with ZFP SBS#647.

B3: GGATGGGGG (dsDNA)
DNA 1: GGATGGGGG
DNA 2: CCCCCATCC
Molecule B3 showed a Kd with ZFP SBS#253 of 0.75 nM.

B4: GCTGCAGGAG (dsDNA)
DNA 1: GCTGCAGGAG
DNA 2: CTCCTGCAGC
With B4, the Kd with ZFP SBS#683 came to 500 nM; with ZFP SBS#681, 3000 nM; with ZFP SBS#685, 150 nM; with ZFP SBS#684, 850 nM; with ZFP SBS#682, 90 nM.

B5: TTGTAGGGGA (dsDNA)
DNA 1: TTGTAGGGGA
DNA 2: TCCCCTACAA
With B5, the Kd with ZFP SBS#629 worked out at 150 nM; with ZFP SBS#628 it was 130 nM.

B6: GAGGAGGATG (dsDNA)
DNA 1: GAGGAGGATG
DNA 2: CATCCTCCTC
In turn, B6 registered a Kd in the series with ZFP SBS#616 of 0.08 nM.

B7: GTTGTGGAAT (dsDNA)
DNA 1: GTTGTGGAAT
DNA 2: ATTCCACAAC
As to B7, in the series with ZFP SBS#651, the Kd came out at 67.5 nM.

B8: GTGGCTGCAG (dsDNA)
DNA 1: GTGGCTGCAG
DNA 2: CTGCAGCCAC
As to B8, the Kd with ZFP SBS#612 was 0.38 nM; with ZFP SBS#611 it was 11.5 nM.

B9: AAGGGGGGG (dsDNA)
DNA 1: AAGGGGGGG
DNA 2: CCCCCCCTT
Consider B9, for which the Kd with ZFP SBS#618 stood at 0.55 nM; in the series with ZFP SBS#620, 0.54 nM; in the series with ZFP SBS#619, 1.34 nM; with ZFP SBS#621, 0.75 nM; in the series with ZFP SBS#617, 1 nM.

B10: ACGGATGTCT (dsDNA)
DNA 1: ACGGATGTCT
DNA 2: AGACATCCGT
In the series with ZFP SBS#624, B10 gave a Kd of 7 nM.

B11: TTGGCTGGGC (dsDNA)
DNA 1: TTGGCTGGGC
DNA 2: GCCCAGCCAA
As for B11, the Kd turned out to be 2 nM with ZFP SBS#614, 1.45 nM with ZFP SBS#613 and 8 nM with ZFP SBS#608.

B12: GTAGTTGTG (dsDNA)
DNA 1: GTAGTTGTG
DNA 2: CACAACTAC
Take B12: the dissociation constant (Kd) in the series with ZFP SBS#371 came out at 175 nM; in the series with ZFP SBS#401, 80 nM; with ZFP SBS#569 it was 52 nM; with ZFP SBS#370, 300 nM; in the series with ZFP SBS#369 it was 95 nM; in the series with ZFP SBS#421, 500 nM. The dissociation constant (Kd) amounted to 750 nM in the series with ZFP SBS#403, 200 nM with ZFP SBS#422, 112 nM with ZFP SBS#372 and 320 nM with ZFP SBS#373.

B13: CGGGGAGAGT (dsDNA)
DNA 1: CGGGGAGAGT
DNA 2: ACTCTCCCCG
In the series with ZFP SBS#630, B13 registered a Kd of 37.5 nM.
